# In patent publication US9688764B2, “Methods of treating breast cancer by administering anti-human prolactin receptor (PRLR) antibodies” (REGENERON PHARMACEUTICALS, INC., priority 2013, dated 2017):
# B1: H1H6782P-DM1: anti-PRLR antibody H1H6782P conjugated to DM1 through an SMCC linker (conjugate)
# VH: EVQLVESGGGLVQPGRSLRLSCAASGFTFDDYAMHWVRQAPGKGLEWVSGIIWNSGHIGYGDSVKGRFTISRDNAKKSLYLQMNSLRAEDTALYYCARDSGRYQSYFDYWGQGTLVTVSS
# VL: DIQMTQSPSTLSASVGDRVTITCRASHIISSWLAWYQQKPGKAPKVLIFKASSLESGVPSRFSGSGSGTEFTLTISSLQPDDFATYYCQQYNTYSRTFGQGTKVEIK
# B2: H1H6765P-DM1: anti-PRLR antibody H1H6765P conjugated to DM1 through an SMCC linker (conjugate)
# VH: EVQLVESGGGVVRPGGSLRLSCVGSGFSFDDHGMNWVRQGPGKGLEWVSGFNWNGGSTNYAESVKGRFTISRDNARNSLFLQMNSLRAEDTALYYCVRGRSGWFNDAFDVWGPGTMVTVSS
# VL: EIVLTQSPGTLSLSPGERATLSCRASQTINSNYLAWYRQKPGQTPRLLIYGTSSRATGIPDRFSGSGSGTDFSLTISRLEPEDFAVFYCQQYAGLPTFGPGTKVDIK
# B3: H1H6975N-DM1 (conjugate)
# VH: EVHLVESGGGLVQPGGSLRLSCAASGFTFSSYEMNWVRQTPGKGLEWISHISSRSVIIYYADSVKGRFTISRDNAKNSLFLQMNSLRAEDTAVYFCAGITIFGIPEYWGQGTLVTVSS
# VL: EIVLTQSPATLSLSPGERATLSCRASQSVSSYFAWYQQKPGQAPRLLIYDASSRATGIPTRFSGSGSGTDFTLTISSLEPEDFAVYYCQQRSSWPITFGQGTRLEIK
# Tests used:
# [1] = tested on: PC3/hPRLR cells; experiment: Cell viability (cell kill) assay; type: cell-based, human; settings: PC3/PRLR; Table 11; 3 days
# In short: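 PC3 and PC3/hPRLR (lipofection-generated, FACS-enriched for PRLR) cells exposed 3 days to anti-PRLR ADCs or free DM1-SMe, 500 nM to 5 pM. Viability by CCK8 OD450, digitonin background subtracted, as % of untreated; IC50 from four-parameter fit of 10-point curves.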
# [2] = tested on: MCF7 (MCF7/ATCC) cells; experiment: Cell viability (cell kill) assay, nuclear counts; type: cell-based; settings: MCF7; Table 12; 3 days
# In short: (§1)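 Anti-PRLR ADCs or free DM1-SMe were added at 500 nM to 5 pM final to cells seeded overnight and were incubated 3 days. MCF7 lines were fixed with 4% formaldehyde plus Hoechst 33342, and nuclei were counted by imaging, with digitonin […] background subtracted. Viability was expressed as % of untreated cells, and IC50 was obtained from a 4-parameter fit of a 10-point curve.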
# [3] = tested on: MCF7/PRLR tumors; experiment: Tumor growth inhibition in xenograft-bearing mice; type: in vivo, NCr nude mice; settings: for Final Tumor size mm^3 (mean ± SEM): MCF7/PRLR tumors TRIAL #2, NCr Nude mice, Day 63
# Description: (§2) Briefly, 20×10^6 MCF7/PRLR cells (ATCC HTB-22 transfected with full length hPRLR as previously described) were implanted subcutaneously into the left mammary fat pad of female NCr nude mice. In other studies, 10×10^6 PC3/PRLR (ATCC CRL-1435 transfected with full length hPRLR as previously described) were implanted subcutaneously into the left flank of male SCID mice. Additionally, 10×10^6 parental T47D (ATCC HTB-133) or […] T47D#11 cells (ATCC HTB-133 serially passaged in vivo as described below) were subcutaneously implanted into the left flank of female CB17 SCID mice. All mice were obtained from Taconic (Hudson, N.Y.). Each bolus of cells was supplemented with a 90-day estrogen release pellet (1.7 mg/pellet; Innovative Research America, Sarasota Fla.). Once tumors had reached an average volume of 250 mm^3, mice were randomized into groups of seven and dosed with anti-PRLR antibody-drug conjugates of the invention or control reagents. Control reagents included PBS vehicle, free methyl-disulfide DM1 (DM1-SMe) and isotype Control 1-DM1.
# (§3) In multi-dose studies, mice were dosed once a week for a total of three weeks with tumor volumes and body weights being monitored twice weekly throughout the study. Test ADCs were dosed at 5 and/or 15 mg/kg in the multi-dose studies. In single-dose studies, mice received a single dose of test ADC, and tumor volumes and body weights were monitored twice weekly throughout the study. Test ADCs were dosed at 1, 2.5, 5, and 15 mg/kg in the single-dose studies. Average tumor size as well as tumor growth inhibition relative to the vehicle treated group were calculated for each group. Tumors were measured with calipers twice a week until the average size of the vehicle group reached 1000 mm^3. Tumor size was calculated using the formula (length×width^2)/2. Tumor growth inhibition was calculated according to the following formula: (1−((Tfinal−Tinitial)/(Cfinal−Cinitial)))*100, where T (treated group) and C (control group) represent the mean tumor mass on the day the vehicle group reached 1000 mm^3. […] Results are summarized in Tables 21-25 (multi-dose) and Table 26 (single dose). (NT=not tested in the particular experiment shown).
# [4] = tested on: T47D cells; experiment: Cell viability (cell kill) assay; type: cell-based; settings: T47D, Table 12, 3 days; for IC50: read-out: IC50
# In short: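 T47D cells grown overnight, then exposed 3 days to anti-PRLR ADCs (DM1 via non-cleavable SMCC linker, or other maytansinoid toxins) or free DM1-SMe, 500 nM to 5 pM. Viability by CCK8 OD450, digitonin background subtracted, as % of untreated; IC50 from 10-point four-parameter fit. PRL (15 nM) co-incubation tested separately.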
# [5] = tested on: HEK293 (293) cells; experiment: Cell viability (cell kill) assay; type: cell-based; settings: 293; Table 11; 3 days
# In short: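 Anti-PRLR–DM1 ADCs (non-cleavable SMCC linker) or free DM1-SMe, 500 nM to 5 pM for 3 days on parental or hPRLR-overexpressing lines. HEK293: CCK8 OD450; MCF7: Hoechst nuclear counts by imaging.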
# [6] = Conjugate characterization: protein and linker/payload concentrations, payload loading (UV, MALDI-TOF, SEC-HPLC, RP-HPLC); type: physicochemical; settings: Anti-PRLR-SMCC-DM1 conjugates; Table 9
# Description: Selected anti-PRLR antibodies were conjugated to the maytansinoid DM1 through an SMCC linker using methods similar to those set forth in U.S. Pat. No. 5,208,020 and US Patent Application Publication No. 2010/0129314, the disclosures of which are incorporated by reference herein in their entireties. The conjugates were purified by size exclusion chromatography and sterile filtered. All starting materials and solvents were purchased commercially and used without purification, unless otherwise noted.
# Protein and linker/payload concentrations were determined by UV spectral analysis and MALDI-TOF mass spectrometry. Size-exclusion HPLC established that all conjugates used were >95% monomeric, and RP-HPLC established that there was <0.5% unconjugated linker payload. Yields are reported in Table 8 and 9 based on protein. All conjugated antibodies were analyzed by UV for linker payload loading values according to Hamblett et al, 2004, Clinical Cancer Research 10(20):7063-7070, and by mass difference, native versus conjugated.
# [7] = tested on: MCF7/hPRLR (MCF7/PRLR) cells; experiment: Cell viability (cell kill) assay, nuclear counts; type: cell-based, human; settings: Table 12, 3 days
# In short: as §1
# [8] = tested on: T47D#11 tumors; experiment: Tumor growth inhibition in xenograft-bearing mice; type: in vivo, CB17 SCID mice; settings: for Average Tumor Growth Inhibition (%): T47D#11 tumors, multi-dose 5 mg/kg, SCID mice, Day 66; for effect on T47D#11 tumor growth: multi-dose, 5 and 15 mg/kg
# Description: as §2, §3
# [9] = tested on: PC3/PRLR tumors; experiment: Tumor growth inhibition in xenograft-bearing mice; type: in vivo, SCID mice; settings: for Average Tumor Growth Inhibition (%): SCID mice
# Description: as §2, §3
# [10] = tested on: PC3 cells; experiment: Cell viability (cell kill) assay; type: cell-based; settings: Table 11, 3 days
# Description: PRLR-overexpressing cells, including HEK293, PC3, MCF7 and NCI-N87, were generated to assess the ability of anti-PRLR conjugated antibodies to reduce cell viability. For comparative purposes, PC3 and T47D cells with overexpressed ErbB2 were also generated, as well as an MCF7 cell line over-expressing both hPRLR and hErbB2. Briefly, Lipofectamine® 2000-mediated transfection methodology was utilized to generate HEK293 cells expressing human PRLR (HEK293/hPRLR) or human ErbB2 (HEK293/hErbB2). Lipofectamine LTX with Plus Reagent was used to generate PC3 cells expressing human PRLR (PC3/hPRLR) or human ErbB2 (PC3/hErbB2). Lentiviral-mediated transduction was utilized to generate MCF7 cells expressing human PRLR (MCF7/hPRLR), NCI-N87 cells expressing human PRLR (NCI-N87/hPRLR), T47D cells over-expressing human ErbB2 (T47D/hErbB2), and MCF7 cells expressing both human PRLR and human ErbB2 (MCF7/hPRLR/hErbB2). All lines were selected for at least two weeks in complete growth media plus appropriate selection reagents. Stably expressing populations were enriched for PRLR expression via FACS using the anti PRLR antibody Control I.
# Next, the ability of anti-PRLR-DM1 antibody-drug conjugates (i.e., anti-PRLR antibodies conjugated to DM1 via a non-cleavable linker [SMCC]) to reduce cell viability was determined using in vitro cell based assays. Cells were seeded in PDL-coated 96 well plates at 1500 to 10000 cells per well in complete growth media and allowed to grow overnight. For cell viability curves, ADCs or free DM1 (as the methyl disulfide derivative DM1-SMe) were added to the cells at final concentrations ranging from 500 nM to 5 pM and incubated for 3 days. The 293, PC3 and T47D cells were incubated with CCK8 (Dojindo, Rockville, Md.) for the final 1-3 hours and the absorbance at 450 nm (OD450) was determined on a Flexstation3 (Molecular Devices, Sunnyvale, Calif.). MCF7 cells were treated with Hoechst 33342 nuclear stain while being fixed with 4% formaldehyde. Images were acquired on the ImageXpress micro XL (Molecular Devices, Sunnyvale, Calif.) and nuclear counts were determined via Columbus image analysis software (Perkin Elmer, Shelton, Conn.). Background OD450 values (PC3, 293, and T47D) or nuclear counts (MCF7) from digitonin (40 nM) treated cells was subtracted from all wells and viability was expressed as a percentage of the untreated controls. IC50 values were determined from a four-parameter logistic equation over a 10-point response curve (GraphPad Prism).
# Finally, the potency of anti-PRLR antibodies conjugated to DM1 via the non-cleavable linker SMCC was compared to the cell killing potency of anti-PRLR antibodies conjugated to MMAE via the cleavable linker: mc-vc-PAB (available from Concortis, San Diego, Calif.). Cells used in this experiment were PC3, PC3/hPRLR, MCF7/ATCC and MCF7/PRLR.
Molecule,% Kill [1] [%],IC50 [1] [nM],% Kill [2] [%],IC50 [2] [nM],Final Tumor size mm^3 (mean ± SEM) ([3]; multi-dose 5 mg/kg) [mm^3],% Kill [4] [%],IC50 [4] [nM],IC50 [5] [nM],Payload:Antibody Molar Ratio (MS) [6],% Kill [7] [%],IC50 [7] [nM],Average Tumor Growth Inhibition (%) [8] [%],effect on T47D#11 tumor growth [8],% Kill [5] [%],further results
B1,64,0.92,57,120,74 ± 34,74,4.19,100,2.8,85,0.65,90,potently inhibited tumor growth,,"Final Tumor size mm^3 (mean ± SEM) ([3]; multi-dose 15 mg/kg): 0 ± 0 mm^3; Average Tumor Growth Inhibition (%) ([9]; PC3/PRLR tumors TRIAL #2, multi-dose 15 mg/kg, Day 55): 85%"
B2,70,0.57,68,150,90 ± 56,78,1.63,100,2.3,84,0.18,100,potently inhibited tumor growth,86,"% Kill [10]: 70%; Average Tumor Growth Inhibition (%) ([9]; PC3/PRLR tumors TRIAL #2, multi-dose 5 mg/kg, Day 55): 70%"
B3,68,2.7,73,150,,80,6.9,100,,87,0.49,,,87,"effect on MCF7/PRLR tumor growth ([3]; multi-dose trial 1, 5 and 15 mg/kg): potently inhibited MCF7/PRLR tumor growth; IC50 [10]: 200 nM; Average Tumor Growth Inhibition (%) ([9]; PC3/PRLR tumors TRIAL #1, multi-dose 15 mg/kg, Day 63): 38%; effect on PC3/PRLR tumor growth ([9]; multi-dose, especially at 15 mg/kg): demonstrated inhibition of tumor growth"
